This series in a line: yeast display, Sf9 membrane polyspecificity reagent, FACS + sequencing; frameworks hold sequencing errors. Summed up: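 After 36–48 hours of galactose induction, yeast (Saccharomyces cerevisiae BJ5465) displaying a synthetic nanobody library were stained at 4 °C for 1 hour with 10% biotinylated, detergent-solubilized Sf9 membrane reagent. Streptavidin microbeads enriched the stained cells before FACS sorting into low and high (top ~1%) gates on anti-HA and streptavidin fluorescence. Each clone's polyreactivity label reflects its gate of origin.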
In the case of “QVQLVESGGGLVQAGGSLRLSCAASGSTFVENAMGWYRQAPGKERELVAAITSSGGSTYYADSVKGRFSNSRDNAMNTVYLQMNSLKPEDTSVDYCGVDYIYDDAYNYWGQGTQVTVSS”, the “polyreactivity (PSR sort gate)” value is on record as “high polyreactivity”.

As to “QVQLVESGGGLVQAGGSLRLSCAASGSTFVFYAMGWYRQAPGKERELVAAITISGDITYYADSVKGRFTISRDNAKNTVYLQMNSLKPEDTAVYYCAADWHSWRWGYYYWGQGTQVTVSS”, the “polyreactivity (PSR sort gate)” value was “low polyreactivity”.

Take “QVQLVESGGGLVQAGGSLRLSCAASGSTFVFYAMGWYRQAPGKERELVADITSGGRTSYADSVKGRFTISRDNAKNTVYLQLNSLKPEDTAVYYSAALTRWYAWYDYWGQGTQVTVSS”: the “polyreactivity (PSR sort gate)” value is recorded as “high polyreactivity”.

With “QVQLVESGGGLVQAGGSLRLSCAASGSTFVFYTMGWYRQAPGKEREFVASISGSGGSTYYADSVKGRFTISRDNAKNTVYLQMNSLKPEDTAVYYCAAGYPYYYWTPYYYWVQGTQVTVSS”, the “polyreactivity (PSR sort gate)” value was “high polyreactivity”.

Consider “QVQLVESGGGLVQAGGSLRLSCAASGSTFVGKVMGWYRQAPGKERELVAAISRGGSTYYADSVKGRFTISRDNAKNTVYLQMNSLKPEDTAVYYCAADVRPWGNYHAQYDYWGQGTQVTVSS”, for which the “polyreactivity (PSR sort gate)” value is recorded as “low polyreactivity”.

For the sequence “QVQLVESGGGLVQAGGSLRLSCAASGSTFVGNAMGWSRQAPGKERELVAAITSGGSTNYADSVKGRFTISRDNAKNTVYLQMNSLKPEDTAVYYCAKRVSGSPPTGGSLSDSWGQGTQVTVSS”, the “polyreactivity (PSR sort gate)” value was “high polyreactivity”.

On to “QVQLVESGGGLVQAGGSLRLSCAASGSTFVGNAMGWYRQAPGKERELVAAITGGGGSTYYADSVKGRFTISRDNAKNSVYLQMNSLKPEDTAVDYCARDRTDYYVWYVRYYYWGQGTQVTVSS”, for which the “polyreactivity (PSR sort gate)” value is on record as “low polyreactivity”.

For “QVQLVESGGGLVQAGGSLRLSCAASGSTFVGNAMGWYRQAPGKERELVAAITGGGGSTYYADSVKGRFTISRDNAKNTVYLQMNSLKPEDTAVYYCNKKLQRRSWYDYWGQGTQVTVSS”, the “polyreactivity (PSR sort gate)” value is recorded as “low polyreactivity”.

Take “QVQLVESGGGLVQAGGSLRLSCAASGSTFVGNAMGWYRQEPGKERELVATISNSGGRTYYADSVKGRLTISRDNAKYTVYLQMNSLKPEDTAVYYCAADHPDFGPGYSFDYWGQGTQVTVSS”: the “polyreactivity (PSR sort gate)” value is listed as “low polyreactivity”.

“QVQLVESGGGLVQAGGSLRLSCAASGSTFVGYAMGWYRPAPGKERELVAAITIRGGSTYYADSVKGRFTISRDNAKNNVYLQMNSLKPEDTAVYYCAADYWYGGFEYWGQGTQVTVSS”: the “polyreactivity (PSR sort gate)” value is reported as “low polyreactivity”.

For the sequence “QVQLVESGGGLVQAGGSLRLSCAASGSTFVGYAMGWYRQAPGKERELDAALSANVGGTYYADSVKGRFTISRDNAKNTVYLQMNSLKPEVTAVYYCAADYAYNYFWRPGDYWGQGTQVTVSS”, the “polyreactivity (PSR sort gate)” value is given as “low polyreactivity”.

Regarding “QVQLVESGGGLVQAGGSLRLSCAASGSTFVGYAMGWYRQAPGKERELVAAISKSGGRTYYADSVKGRFTISRDNAKNTVYLQMNSLKPEDTAVYYCAAYFTRYDFRWHTYYYWGQGTQVTVSS”, the “polyreactivity (PSR sort gate)” value was “low polyreactivity”.

For the sequence “QVQLVESGGGLVQAGGSLRLSCAASGSTFVGYAMGWYRQAPGKERELVAAISRTGASTYYADSVKGRFTISRDNAKNTVYLQMNSLKPADTAVYYCAYYYSIYDYWGQGTQVTVSS”, the “polyreactivity (PSR sort gate)” value was “high polyreactivity”.

Consider “QVQLVESGGGLVQAGGSLRLSCAASGSTFVGYAMGWYRQAPGKERELVAAISYSGGSTYYADSVKGRFTISRDNAKNTVYLQMNSLKPEDTAVYYCAAEWSRHYYYGPRYDYWGQGTQVTVSS”, for which the “polyreactivity (PSR sort gate)” value is “low polyreactivity”.

As to “QVQLVESGGGLVQAGGSLRLSCAASGSTFVHNAMGWYRQAPGKERELVARISFRSGRTYYADSVKGRFTISRDNAKNTVYLQMNSLKAEDTAVYYCNAVLYGQYKYDYWGQGTQVTVSS”, the “polyreactivity (PSR sort gate)” value is recorded as “high polyreactivity”.

In the case of “QVQLVESGGGLVQAGGSLRLSCAASGSTFVIKAMGWYRQAPGKERELVAAITSGGDTNYADSVKGRFTISRDNSKYTVYLQMNSLKPEDTALYYCNARDGGQGNYSARYDYWGHGTQVTVSS”, the “polyreactivity (PSR sort gate)” value is “low polyreactivity”.

Regarding “QVQLVESGGGLVQAGGSLRLSCAASGSTFVINAMGWYRPAPGKERELVARISSSGGRTDYADSVKGRFTISRDNAKNTVYLQMNSLKPEDTAVYYCAAATWLIPYTWRDPSQYNYWAQGTQVTVSS”, the “polyreactivity (PSR sort gate)” value is given as “low polyreactivity”.

Turning to “QVQLVESGGGLVQAGGSLRLSCAASGSTFVIYDMGWYRQAPGKERELVAAISYSGGSTYYADSVKGRFTISRDNAKNTVYLQMNSLKPEDTAVYYCAAEGRSDWGGDDYYWGQGTQVTVSS”, the “polyreactivity (PSR sort gate)” value is reported as “low polyreactivity”.

As for “QVQLVESGGGLVQAGGSLRLSCAASGSTFVIYGMGWYRQAPGKERELVADITWIGGSTYYADSVKGRFTISRDNAKNTVYLQMNSLKPEDTAVYYCNADVRYGRDHWGQGTQVTVSS”, the “polyreactivity (PSR sort gate)” value is on record as “low polyreactivity”.

With “QVQLVESGGGLVQAGGSLRLSCAASGSTFVKNTMGWYRQAPGKERELVAAISSRGGSTYYADSVKGRFTISRDNAKNTVYLQMNSLKPEDTAVYYCNALGLYSRYQQGEYDYWGQGTQVTVSS”, the “polyreactivity (PSR sort gate)” value was “low polyreactivity”.

As to “QVQLVESGGGLVQAGGSLRLSCAASGSTFVKYAMGWYRQAPGKERELVAAITASGGRTYYADSVKGRFTISRDNAKNTVYLQMISLKPEDTAVYYCNARGYHYGTLFDYWGQGTQVTVSS”, the “polyreactivity (PSR sort gate)” value is listed as “high polyreactivity”.

On to “QVQLVESGGGLVQAGGSLRLSCAASGSTFVKYAMGWYRQAPGKERELVATITRRGGNTYYADSVKGRFTISRDNAKYTVYLQMNSLKPEDTAVYYCAKYSRTKAFEYWGQGTQVTVSS”, for which the “polyreactivity (PSR sort gate)” value is reported as “high polyreactivity”.

For the sequence “QVQLVESGGGLVQAGGSLRLSCAASGSTFVKYAMGWYRQAPGKERELVATITYSSGSTSYADSVKGRFTISRDNAKNTVYLQMNSLKPEDTAVYYCAKKDYTGYGYWGQGTQVTVSS”, the “polyreactivity (PSR sort gate)” value is reported as “low polyreactivity”.

In the case of “QVQLVESGGGLVQAGGSLRLSCAASGSTFVLDDMGWYRQAPGKERELDAAISYSGDSTNYAASVKGRFTISRDNAKNTVYLQMNSLKPEDTAVYYCNARQRTYYRTHRIRHKGNGYWGQGTQVTVSS”, the “polyreactivity (PSR sort gate)” value is “low polyreactivity”.

Regarding “QVQLVESGGGLVQAGGSLRLSCAASGSTFVNYAMGWYRQAPGKERELVAAISSTGGSTYYADSVKGRFTISRDNAKNTVYLQMNSLKPEDTAVYYCAAYRYFKMGYWGQGTQVTVSS”, the “polyreactivity (PSR sort gate)” value was “high polyreactivity”.

“QVQLVESGGGLVQAGGSLRLSCAASGSTFVPNAMGWYRQAPGKERELVAAITSGGITNYADSVQGRFTISRDNAKNTVYLQMNSLKPEDTAVYYCAVLYYILAPGYDYWGQGTQVTVSS”: the “polyreactivity (PSR sort gate)” value is “low polyreactivity”.

Regarding “QVQLVESGGGLVQAGGSLRLSCAASGSTFVPNTMGWYRQAPGKDRELVAGITSGGSTYYADSVKGRFTISRDNAKNTVYLQMNSLKPEDTAVYYCAAGKHVTFSYEYRMDYWGQGSQVTVSS”, the “polyreactivity (PSR sort gate)” value is “low polyreactivity”.

Consider “QVQLVESGGGLVQAGGSLRLSCAASGSTFVPYAMGWYRQAPGKERELVARISRRGGSSTYYADSVKGRFTISRDNAKNTVYLQMNSLKPEDTAVYYCNKGHITFASVSSGPSPGGYWGQGTQVTVSS”, for which the “polyreactivity (PSR sort gate)” value is reported as “low polyreactivity”.

In the case of “QVQLVESGGGLVQAGGSLRLSCAASGSTFVPYAMGWYRQAPGKERELVASISWRGGSTSYADSVKGRFTISRDNAKNTVYLQMNSLKPEDTAVYYCAKRRYWAPYDYWGQGTQVTVSS”, the “polyreactivity (PSR sort gate)” value is recorded as “high polyreactivity”.

For “QVQLVESGGGLVQAGGSLRLSCAASGSTFVQNAMGWYRQAPGKERELVAAISKSGGRTYYADSVKGRFTISRDNEKNTVYLQINSLNAEDTAVYYCARPYSRAYDYWGQGTQVTVSS”, the “polyreactivity (PSR sort gate)” value is listed as “high polyreactivity”.

For the sequence “QVQLVESGGGLVQAGGSLRLSCAASGSTFVQNAMGWYRQAPGKERELVAAISLRGGSTYYADSVKGRFTISRDNAKNTVYLQMNSLKPEDTAVYYCAADVSQRDGSVRGYDSWGQDTQVTVSS”, the “polyreactivity (PSR sort gate)” value is on record as “high polyreactivity”.

As to “QVQLVESGGGLVQAGGSLRLSCAASGSTFVRNAMGWYRQAPGKERELVAGISTGDNTYYADSVKGRFTISRDNAKNTVYLQMNSLKPEDSAVYYCAARGLPSNYYYYVHGYIMDYWGQGTQVTVSS”, the “polyreactivity (PSR sort gate)” value is recorded as “low polyreactivity”.

“QVQLVESGGGLVQAGGSLRLSCAASGSTFVRNAMGWYRQAPGKERELVARISSSGGRTSYADSVKGRFTISRDNAKNTVYLQMNSLKPEDTAVYYCNARHYYIWWRSPTRTAMNYWGQGTQVTVSS”: the “polyreactivity (PSR sort gate)” value was “high polyreactivity”.

As for “QVQLVESGGGLVQAGGSLRLSCAASGSTFVRNDMGWYRQAPGKERELVAAINGDGRTYYADSVKGRFTISRDNAKNTVYLQMNSLKPEDTAVYYCAADWKSSRSYSYEMDYWGQGTQVTVSS”, the “polyreactivity (PSR sort gate)” value is reported as “low polyreactivity”.

In the case of “QVQLVESGGGLVQAGGSLRLSCAASGSTFVRNVMGWYRQAPGKEREFVAAITRSGGSTYYADSVKGRFTISRDNAKNTVYLQMNSLKPEDTAVYYCIVPPGYRLSQYEYDYWGQGTQVTVSS”, the “polyreactivity (PSR sort gate)” value is recorded as “low polyreactivity”.

In the case of “QVQLVESGGGLVQAGGSLRLSCAASGSTFVRYAMGWYRQAPGKERELVAAIRWSSGSTYYADSVKGRFTISRDNAKNTVYLQMNSLKPEDTAVYYCAKRQYLYTSKYDYWGQGTQVTVSS”, the “polyreactivity (PSR sort gate)” value was “high polyreactivity”.

In the case of “QVQLVESGGGLVQAGGSLRLSCAASGSTFVRYAMGWYRQAPGKERELVAAISGGGSTSYADSVKGRFTISRDNAKNTVYLQMNSLKPEDTAVYYCAAEKYRWENDAYQYYTFDYWGQGTQVTVSS”, the “polyreactivity (PSR sort gate)” value is reported as “low polyreactivity”.

On to “QVQLVESGGGLVQAGGSLRLSCAASGSTFVRYAMGWYRQAPGKERELVAAISKRGGSTYYADSVKGRFTISRDNAKNTVYLQMNSLKPEDTAVYYCAAVPLSSRQYDYWGQGTQVTVSS”, for which the “polyreactivity (PSR sort gate)” value is on record as “high polyreactivity”.

On to “QVQLVESGGGLVQAGGSLRLSCAASGSTFVRYPMGWYRPAPGKERELVAGISRVGNTYYADSVKGRFTISRDNAKNTVYLQMNSLKPEDTAVYYCAARSSRWDGYDYWGQGTQVTVSS”, for which the “polyreactivity (PSR sort gate)” value was “high polyreactivity”.

Take “QVQLVESGGGLVQAGGSLRLSCAASGSTFVSNAMGWYRQAPGKEREFVAAISGSGGSTYYADSVKGRFTISRDNAMNTVYLQMNSLKPEVTAVYYCATAGRYGRYRTYPYRSKYDYWGQGTQVTVSS”: the “polyreactivity (PSR sort gate)” value is recorded as “high polyreactivity”.

The values above are taken from the nanobody polyreactivity screen of Harvey et al. (2022).
